# Laboratory results from publication PMC11021452, “Exposing the molecular heterogeneity of glycosylated biotherapeutics” (Nature Communications, 2024).
# B1: IL22-Fc fusion biotherapeutic (UTTR1147A) [modified: N-linked glycans with sialic acid; 8 N-linked glycosylation sites in the dimer (N21, N35, N64, N143 on each chain); N-linked glycans with sialic acid; 8 N-linked … (parent)
# chain 1: APISSHCRLDKSNFQQPYITNRTFMLAKEASLADNNTDVRLIGEKLFHGVSMSERCYLMKQVLNFTLEEVLFPQSDRFQPYMQEVVPFLARLSNRLSTCHIEGDDLHIQRNVQKLKDTVKKLGESGEIKAIGELDLLFMSLRNACI
# chain 2: HAPEDPSDLLQHVKFQSSNFENILTWDSGPEGTPDTVYSIEYKTYGERDWVAKKGCQRITRKSCNLTVETGNLTELYYARVTAVSAGGRSATKMTDRFSSLQHTTLKPPDVTCISKVRSIQMIVHPTPTPIRAGDGHRLTLEDIFHDLFYHLELQVNRTYQMHLGGKQREYEFFGLTPDTEFLGTIMICVPTWAKESAPYMCRVKTLPDRTWT
# Variants of: B1
# Test: relative potency assay (method not named for this panel; measured in duplicate)
# Details: with IL-22 RA1 extracellular domain (ECD)
row,ratio to parent,Variant
1,1.54,chain 1 APISSHCRLDKSNFQQPYITNRTFMLAKEASLADQNTDVRLIGEKLFHGVSMSERCYLMKQVLNFTLEEVLFPQSDRFQPYMQEVVPFLARLSNRLSTCHIEGDDLHIQRNVQKLKDTVKKLGESGEIKAIGELDLLFMSLRNACI
2,0.83,chain 1 APISSHCRLDKSNFQQPYITNRTFMLAKEASLADNNTDVRLIGEKLFHGVSMSERCYLMKQVLNFTLEEVLFPQSDRFQPYMQEVVPFLARLSNRLSTCHIEGDDLHIQRNVQKLKDTVKKLGESGEIKAIGELDLLFMSLRQACI
3,0.64,chain 1 APISSHCRLDKSNFQQPYITNRTFMLAKEASLADNNTDVRLIGEKLFHGVSMSERCYLMKQVLQFTLEEVLFPQSDRFQPYMQEVVPFLARLSNRLSTCHIEGDDLHIQRNVQKLKDTVKKLGESGEIKAIGELDLLFMSLRNACI
